In the DeepSol protein solubility set:

assay: soluble on expression in E. coli; label from the status in PepcDB or PDB records

**Q.** Which “soluble on expression in E. coli” value does the source give for “GPGSMTEHENTPRLELEAALGYSGNLPGSLVAHPDQQHLLYALGACIVIRDANDAESSEFFYGHNDKISCLTVSVSGRYVASGQVTHPGFQADVCIFDFAERRLIHRMLLHKVKVQALAFSLDEQYLASVGGPDDNTVVLWDVKTGRPLCGAPAHHTETKAIAFFNNNSEKLITGGVGSLLVWTVDLEQRKMNSVDINMGNMRRSVQTISIEKTDKYVYCGTTSGDVICAQLQQANVFKMQGPQKKLSGGILSTILTNTGDVLVGSGAGELQLLSKINLTVQNSATVNGGVTALALMGDNYYVGTKTSNLYFVNGGNFMTRLRLTCHSEAVQDVVFPHGFSSVFATCCDTDIRVWNANSCTELLRIEVSNRTCNCLQFSRDGSLIISGWSDGRIRAFGPQSGKLVFSVADAHKVEQGSRSHKVGGKVGVTSVCADNAGHRIITGGSDGLVRVWAIRGATCTLEASMKEHKAAVNAIVISHDDTECVTASDDGSCIVWDLTRYLRRNIMYRQTYFRALEYYVDDSQLITCGSDKCIVYWDSVDCHAIREVCGSRTAELNSLSLSPDGRFFVTGGNDRIVKVWDYDRGECIAVGLAHSCSITKVRVSPDGKKIVSVGDEGAVMVWNIAELAIEGL” here?
**A.** not soluble

**Q.** Which “soluble on expression in E. coli” value does the source give for “GPGSMTNQSDAIFPNILWAQRAELVLITIPLQDATNVVVEIKEGRVLHFEAEAGGEKYRCDVELFREVVSEESRHAAQPRQIDIQLRKKAPLTESGEEEFAQSRSWLRLTRDKSKNSHIQVDWSRWRDEDEDEDETGGLGMDYNDLMSRMMTQKGLGEDDCMDCGNHTDEDGVGPGADKANHSDSDDYDDLPPLEP” here?
**A.** soluble

**Q.** With “GPGSMVDPSVLLAYCPTHDFQRIEAVVREWPGVEAVGSLRTKEGKENTTSVFIKFSDKEAARDATSRIDAVPGLVRKIEEPKAKQRMRKMGKNMLIDPAMEIFSFGATDKGDVTFNERKREGNRRRHPSVIGPGSGSERTSNKGNNAIRHHPFTPPARASVALVDNVPFNMTNDQVARLFSPFGELIDLSRYETMAMVFYRSPDSVLKCIQQLNGKTVKGKIITVSSGAITIPGLLAAVVGVQVHN” as the sequence, how does the “soluble on expression in E. coli” value read?
**A.** soluble

**Q.** For “GPGSMVRSSSSSSAPLWKNQGGGSATAGAVASTTSPWLLRQLALAHFHNGDIQESADAFEQLLRTAPWELTNPALIFYSTALWHLKSESALGSLAQRLTDAEPLSATTLCVVANAYSLIKDPRDALVMLKRAVQVAPTLAYAHALHGYELLGQDSKAEAEAEFKAALAVDASLYIAYAGLGERFMREEQIDKARGYYKEAVKLNPTPAIVNRFALTYHRQGKSLADLKTALRLYTESLERHPNNVTARRQRADVLLRLDQPMQALEELKALLVQCPGEAVVYVTLAECMVCLRRPHEALQHYQTAMHLDPRRESYVQGCIDQLVAANML”, which “soluble on expression in E. coli” value is on record?
**A.** soluble

**Q.** Which “soluble on expression in E. coli” value does the source give for “GPGSMVTPEQAALIEGAFRSMDRDGTGLVRLEDIFRVFDDSRHPRVRDGELAPAATRDMLMHQFGATAQAHGGVSFDVFMRFHERMAEDAAVAKVNDKELFLTDTIIGVWRLGTLLQPTLIRPLFPVNVRPSGLYATQYMSLVWVDEVAGPGSFVVHVVRDVVRPIFSRGDLPPQLRGMFAYPTELAGMKIIEERLQIATQRWLDFVWEYEEGKHAAVPGIISARVDPDTLPQYLRDMIVEHDVAKAIPSLFFVPTSVAVNPMYKRSSEEYGYGVPEEVKRMSRWKDLTYSGQACGLIYHGRVGKFTRERLNAPVQDVASAMNI” here?
**A.** not soluble

**Q.** With “GPGSMWTTSMALMSKRSMKYQTKLRHRFRNPSVLPLKQTKAQRDETIRSVLQVRNINPANQSSYRYVEQRLYSTGSRLDREGVKLNTTYALQGLGDLEPLRNSKSFGFSEREALKYDSLQQAAKYEAPPVPFTPLAARKLAEGKLWPSAPEPDGMLSKEVPYLRHRANMSPSAQTFADKIAYHLRRSLKACPAHIAEQMDFAQLIIEEVIASRRSKLVYIVWATVDPAARFAMEPQLHRLNHWVQRLIMERIRTRPNIPQIAWVWNGGRLERELPRELKEEMQAYASDNSSTLEMRVRYLKEMDTVNQRMRNIPWFMPYLWSKEEKAGKTRRMRKDLEEYEQRRLAAKKDQRESERDMSGRSVAPQIGAPPAYVR” as the sequence, how does the “soluble on expression in E. coli” value read?
**A.** not soluble
